Percent of the loaded protein recovered as VLPs data for one substance are collected here from paper PMC10803429.

This experiment has as its target SpyTag-VP2 (N-terminal SpyTag chimera of the major structural protein VP2 of parvovirus B19) (not stated | parvovirus B19). Kind of experiment: SEC + other: light scattering (MALS, Zetasizer Ultra); different amounts of SpyTag-VP2 (2.5-60 mL of 0.142 mg/mL) loaded on a 5-mL HisTrap HP column; peak run on Sephacryl 300-HR in 2 M GdnHCl buffer; fractions of 18-28 nm pooled, BCA.

As to “SpyTag-VP2 (N-terminal SpyTag chimera of the major structural protein VP2 of parvovirus B19)”, the percent of the loaded protein recovered as VLPs came out at 95%.
